In IntAct's records for PubMed 25006247:

B1: Pyrin (Homo sapiens), O15553 (parent)
chain: MAKTPSDHLLSTLEELVPYDFEKFKFKLQNTSVQKEHSRIPRSQIQRARPVKMATLLVTYYGEEYAVQLTLQVLRAINQRLLAEELHRAAIQEYSTQENGTDDSAASSSLGENKPRSLKTPDHPEGNEGNGPRPYGGGAASLRCSQPEAGRGLSRKPLSKRREKASEGLDAQGKPRTRSPALPGGRSPGPCRALEGGQAEVRLRRNASSAGRLQGLAGGAPGQKECRPFEVYLPSGKMRPRSLEVTISTGEKAPANPEILLTLEEKTAANLDSATEPRARPTPDGGASADLKEGPGNPEHSVTGRPPDTAASPRCHAQEGDPVDGTCVRDSCSFPEAVSGHPQASGSRSPGCPRCQDSHERKSPGSLSPQPLPQCKRHLKQVQLLFCEDHDEPICLICSLSQEHQGHRVRPIEEVALEHKKKIQKQLEHLKKLRKSGEEQRSYGEEKAVSFLKQTEALKQRVQRKLEQVYYFLEQQEHFFVASLEDVGQMVGQIRKAYDTRVSQDIALLDALIGELEAKECQSEWELLQDIGDILHRAKTVPVPEKWTTPQEIKQKIQLLHQKSEFVEKSTKYFSETLRSEMEMFNVPELIGAQAHAVNVILDAETAYPNLIFSDDLKSVRLGNKWERLPDGPQRFDSCIIVLGSPSFLSGRRYWEVEVGDKTAWILGACKTSISRKGNMTLSPENGYWVVIMMKENEYQASSVPPTRLLIKEPPKRVGIFVDYRVGSISFYNVTARSHIYTFASCSFSGPLQPIFSPGTRDGGKNTAPLTICPVGGQGPD

Variants of: B1
Details: with asc_human PYCARD

Variant	effect of a mutation on the interaction
Q46A	with no effect
E22A	increasing interaction strength
Q29A	with no effect
K3A	with no effect
L10A	decreasing interaction strength
E14A	decreasing interaction strength
R42A	decreasing interaction strength
R42W	decreasing interaction strength
K25A	disrupting interaction strength
K35A	with no effect
H37A	with no effect

The next lines start with the values.

effect of a mutation on the interaction	Variant
increasing interaction strength	V58A
decreasing interaction strength	L71A
decreasing interaction strength	R75A
with no effect	R88A
with no effect	A89T
increasing interaction strength	E63A
with no effect	R49A
decreasing interaction strength	R80A
with no effect	E84A

Variants of: B1
Details: with asc_human PYCARD
Remark: another data set of the same source

Variant	effect of a mutation on the interaction
R42W	with no effect
